# Assay results as given in patent US10485196, “Rice plants with altered seed phenotype and quality” (THE INSTITUTE OF GENETICS AND DEVELOPMENTAL BIOLOGY CHINESE …).
# Where a chain is given by its changes, count along the chain named.
# T1: OsSPL16 (GW8) (Oryza sativa, UniProt Q6YZE8 Q6YZE8:1-455)
# T1 sequence: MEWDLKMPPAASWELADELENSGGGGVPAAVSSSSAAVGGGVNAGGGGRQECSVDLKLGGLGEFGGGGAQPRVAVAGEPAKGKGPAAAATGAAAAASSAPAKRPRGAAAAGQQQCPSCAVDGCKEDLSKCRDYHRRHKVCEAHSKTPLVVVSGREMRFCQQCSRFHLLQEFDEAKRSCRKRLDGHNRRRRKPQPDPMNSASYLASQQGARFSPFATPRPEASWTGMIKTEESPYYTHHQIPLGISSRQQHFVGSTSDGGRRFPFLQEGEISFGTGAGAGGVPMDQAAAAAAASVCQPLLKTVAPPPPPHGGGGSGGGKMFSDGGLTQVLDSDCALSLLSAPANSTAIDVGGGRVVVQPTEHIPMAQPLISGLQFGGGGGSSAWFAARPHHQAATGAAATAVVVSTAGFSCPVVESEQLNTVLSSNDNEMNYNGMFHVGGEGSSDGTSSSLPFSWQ
# B1: GTAC motif probe (T) (dsDNA)
# DNA 1: TAGTGTACGTACCTCTTAGTGTACGTACCTCTTAGTGTACGTACCTCT
# DNA 2: AGAGGTACGTACACTAAGAGGTACGTACACTAAGAGGTACGTACACTA
# B2: mutated GTAC motif probe (Z) (dsDNA)
# DNA 1: B1 DNA 1 with A7G, A11G, A23G, A27G, A39G, A43G
# DNA 2: B1 DNA 2 with T6C, T10C, T22C, T26C, T38C, T42C
# B3: GW7 promoter F8 fragment probe (HJX1) (dsDNA)
# DNA 1: CCATTGACACACCATACCACATCTCATCTCACGCGTCCCAAAGAAAGTGATAGTGTACGTACC
# DNA 2: GGTACGTACACTATCACTTTCTTTGGGACGCGTGAGATGAGATGTGGTATGGTGTGTCAATGG
# Legend:
# Conditions in all cases: label: biotin 3'
# OsSPL16 (GW8) [1] = biological target: T1, OsSPL16 (GW8); experiment: EMSA; competed by 10-50x cold GTAC probe; probe assignment from Table 9
# OsSPL16 (GW8) [2] = biological target: T1, OsSPL16 (GW8); experiment: EMSA; mutation of GTAC abolished affinity; probe assignment from Table 9
# Method: FIG. 10 The DNA fragment (F8) containing two […] motifs (a) or two mutated ATAC motifs (b) was incubated with GST-OsSPL16 as indicated. Competition for OsSPL16 binding was performed with 10×, 20×, 30× and 50× cold probes containing the GTAC motif, respectively.
# OsSPL16 (GW8) [3] = biological target: T1, OsSPL16 (GW8); experiment: EMSA; competed by 10-50x cold GTAC probe; probe assignment from Table 9; remark: listed apart in the source
# Text: FIG. 4. OsSPL16 negatively regulates GW7 expression. (a) Effect of OsSPL16/GW8 on transcript abundance of GW7 in young panicles. Transcription relative to the level of NIL-GW8^HJX74 plants set to be one. Data shown as mean±s.e.m (n=3). (b) Grain size and shape formed by transgenic NIL-gw8 Basmati plants. Scale bar: 2 mm. (c) ChIP assays. The diagram depicts the putative GW7 promoter and regions of it used for ChIP-PCR analysis of extracts from young panicle of transgenic NIL-gw8 Basmati plants carrying pActin::myc-OsSPL16 construct. Data shown as mean±s.e.m (n=3). (d) EMSA assays. The GTAC motifs-containing DNA fragment (F8 shown in c) of the GW7 promoter was incubated with GST-OsSPL16 as indicated. Competition for OsSPL16 binding was performed with 10×, 20×, 30× and 50× cold probes containing the GTAC motifs, respectively. (e) OsSPL16 represses transcription of the GW7 gene promoter. Relative luciferase activity was monitored in rice protoplasts co-transfected with the different effector and reporter constructs. Mock: co-transfected with reporter constructs and an empty effector construct; negative control: co-transfected with effector construct and an empty reporter construct set to be one. Data shown as mean±s.e.m (n=3). A Student's t-test was used to generate the P values. (f) An 11 bp deletion and 18 bp insertion found in close proximity to the GTAC motifs in the GW7TFA allele. […]
binder,measurement,setting,value
B1,binding result,OsSPL16 (GW8) [1],binds
B2,binding result,OsSPL16 (GW8) [2],no binding
B3,binding result,OsSPL16 (GW8) [3],binds
